Test results taken from the DeepSol protein solubility set.

Assay: soluble on expression in E. coli; label from the status in PepcDB or PDB records

MGHHHHHHSHMEGTYITSEHSYQKPQSFGQDCKSLADPGSSDDDDVSSLEEEQEFHMRSKNSLQYSAKEHGMPEKNPAEGNTVFVYNDKKGTEDPGDSHLQWQLNLLTHIENVQNEVTSRMDLIEKEVDVLESWLDFTGELEPPDPLARLPQLKRHIKQLLIDMGKVQQIATLCSV
soluble on expression in E. coli: not soluble

MSLNLIFKKKSYSFKLSTKVENSKTTYLTKLGWIIKLTSNDKKIGFGEVSPLLEEDLKKCAKQLNMIPKNVEAFNLSEQINIFHPCIQSAINSALAEINGKIIFKENYTFDEIDKTAILLNSENVITELNEIKQRQSIIGKSVTIKWKVALRDNHEEEANLEEILSQIGNNIKLRIDANGSWSRKIANRWADILKDNKNIDWLEQPLCVEDIEGMKELNKKIPIALDESLLKFPTLIDEWKGWQIRRPSQENNPVKLLRELENKKALISISTSFETGIGKRWLYHLSSLQLQGPTPKVPGLGMNKFPNSFLFLNEAKKIWDQLEGHHHHHH
soluble on expression in E. coli: not soluble

MTQRLQLTWYNKDKALIPTETGKYGYTWVDPSDPRYCETHTLIFDDYVQGAQTPKSDEFECSERADLQPQDDNLLILGESGDVLEALTRVPELAEKYVGKVKLVYIDPPFNTAQTFASYEDNLEHSIWLTMMRDRLIHMKKLLTNDGSIWVHLDDVEVHRMRVLMDEVFGADRFIATVAWEKDKGRRNDTDISGAHDLILIYAPSGRQWKNVRNLLPRLASQDARYQNPDNDPRGPWLQGDNGTAKSGTEKNRFPVTLPSGRVVTPKGRYWRFSPEGLAEARADGRVWFGKDGDSLPVIKRYLTDVQTGLVPRTWWNADEAGHNQEAKRDHLNKMFPEVENP
soluble on expression in E. coli: not soluble

MTENFAQLFEESLKEIETRPGSIIRGTIVAVNKDNVIVDAGLKSESVISIDQFKNAAGEVEVVVGDEIDVALDATDDGFGETILSREKAKRHEAWQVLEKAYEEKETVIGVINGKVKGGFTVEVSDIRAFLPGSLVDVRPVRDTAHLEGKPLEFKVIKLDQKRNNVVVSRRAVIEAEGSAERDELLESLAEGQEVKGIVKNLTDYGAFVDLGGIDGLLHITDMAWKRVKHPSEIVNVGDEIQVKVLKFDRERTRVSLGMKQLGEDPWVAIANRYPEGSKLSGRVTNLTDYGCFVEIQEGVEGLVHVSEMDWTNKNIHPSKVVNLGDTVEVLVLEIDEERRRISLGLKQCIANPWEEFAKNFNKGDKVSGKIKSITDFGIFIGLDGGIDGLVHLSDISWAGGEEAVRDYKKGDEIDAIVLQVDPERERISLGVKQAEDDPFNMYLADKKKGAIVTGKVTEVDAKGATILLAESVEGYLRVSDISVERIEDASTVLKVGDDVEARFMGVDRKNRTISLSIKAKDQADEREAMDNLNQVEETGLSAMAAAFKNAKNLEHHHHHH
soluble on expression in E. coli: soluble

MDSDSGEQSEGELSPGHESFNSKSLALQAQKKILSKMATMAVANLLTDDTSSEILDELYKASREYTKSKKEAHKIIKDVIKIALKIGILYRNHQFSPEEMETVERFKKKMNQAAMTVVSFYEVEYTFDRGILSELLLECRDLLHELVEHHLTMRSHGRIDHVFNHFADVDFLTELYGPSEDYRLNLRKICDGINKLLDEGTL
soluble on expression in E. coli: not soluble

MSLKTTPLPILDLLEAYRPLFVEALGNRSRKERSKKERYIAKITAPCIDACPAHVDIPAYIEGVRDHLLGDSLAATRKSMPLAQVCGRVCPHPCESACRRGDLDEPISIMELKRLGADYEKERHGGFIHPYPPKPRRKDKRVAIIGAGPAGLSSAYYLALEGIMSDVFEALPVLGGEVSVGVPEYRMPIDRYYHDIEAIKSLGVSFWTNHFVSAKELDEMRQKYDAIILATGARISKKLGVKGEEESLGGYAPAIPWLDQINLATKFNLAALPDLRGKSVVCVGGGFTSMDVVRCAVRLGAKRIVMLYRRDEATLIQNTSKEEYHEALEEGVEFLFQCAVQEIKSCGGEIKALLVEEYEVVYEEGARKPSLRRIEREPLFLECDLLIPAVSQEVDRSFIPKEWNLESTSWGSFKTNGKDFSTTLRGVFAAGDCEKGPLTIVNAVGQGKRAASVVSRFLEDGEEGHHHHHH
soluble on expression in E. coli: soluble

MSLEWHFSLKEPHVLLFLPFEKYALPYPDPSQSWLSFGLTEIPVPEWTKNLEIITPWRPDFLKFANAQFRCSPEINQTCTHDGALLQLSKYRGFNQNCFLDLLERVKPGGWIIIGGNKTSGADSMMKWVKKIVPITNKFSKNHGLVFWIQVPQQIEKQNTAQLRSPPLTFENKFQTTSGMFSHGRIDPGSAVLASHMCKTISGKTADFGAGWGFLSHAALERSEKLTALDLYEADYNALKAAKQHLKHITTSLPIHFYWHDLVHEPITNLYDTIISNPPFHTQQTTDVSLGQHFIINAAKYLKPGGNLLLVANRHLPYETLLKRLFRTVLIYEKAHGFKVIEAYREGHHHHHH
soluble on expression in E. coli: soluble

MGSDKIHHHHHHMTASVNVPLNSRGKLAASLPAEQLAEITALFEFRRTGYSLDAPFYTDRSIFNIDMEAIFGQHWIFAASTAELPEPGDYVTVDYGPYSLIVLRNDDGAVNVLHNVCRHRGARVLTEAAGSTGNLVCGYHSWTYSPEGNLIHASAPGETKFDKSCFGLKRAHGREVAGLIFVCIADDAPTDFDETAKIFEPYLAPHDLSKTKIAYQQNIIEEGNWKLVMENNRECYHCDGHPELACSLFPTWGLTEGLIPPHLEEVWNRNKEAQSSLEERCRRYGLPYEVVEQLDTRIAGIRISRESLDGEGESFSADGRRLSKKLLGDLPDFRLGRCSMHLQPNSWFHFLGDHVITFGVFPINEHQSLVRTTWLVADDAVEGVDYDLEKLTYTWKQTNLQDKAFVELCQQGAGSPAYEPGPYMKSEYQVEAFINWYVQRVQEHLA
soluble on expression in E. coli: not soluble

MPSRVPKSIFYNQVGYLISGDKRFWIQAHEPQPFALRTPEGQAVFAGMTKPVGGNWYVGDFTALRVPGTYTLTVGTLEARVVIHRRAYRDVLEAMLRFFDYQLCGVVLPEDEAGPWAHGACHTSDAKVFGTERALACPGGWHDAGDYGKYTVPAAKAVADLLLAHEYFPAALAHVRPMRSVHRAPHLPPALEVAREEIAWLLTMQDPATGGVYHKVTTPSFPPLDTRPEDDDAPLVLSPISYAATATFCAAMAHAALVYRPFDPALSSCCADAARRAYAWLGAHEMQPFHNPDGILTGEYGDAELRDELLWASCALLRMTGDSAWARVCEPLLDLDLPWELGWADVALYGVMDYLRTPRAAVSDDVRNKVKSRLLRELDALAAMAESHPFGIPMRDDDFIWGSNMVLLNRAMAFLLAEGVGVLHPAAHTVAQRAADYLFGANPLGQCYVTGFGQRPVRHPHHRPSVADDVDHPVPGMVVGGPNRHLQDEIARAQLAGRPAMEAYIDHQDSYSTNEVAVYWNSPAVFVIAALLEARGR
soluble on expression in E. coli: soluble

SRLDIIRAEMDVVPSPGLPEKVNEKSKNIPLPEGINLLSSKEIIDLIQTHRHQLELYVTKFNPLTDFAGKIHAFRDQFKQLEENFEDLHEQKDKVQALLENARILESKYVASWQDYHSEFSKKYGDIALKKKLEQNTKKLDEESSQLETTTRSIDSADDLDQFIKNYLDIRTQYHLRREKLATWDKQGNLKY
soluble on expression in E. coli: soluble

MGSDKIHHHHHHMAYLEVLRYLYHKRPMGKVKPGLERISMLLSKLGNPHLEYKTIHIGGTNGKGSVANMVSNILVSQGYRVGSYYSPHLSTFRERIRLNEEYISEEDVVKIYETMEPILNELDKEEIFSPSFFEVVTAMAFLYFAEKNVDIAVLEVGLGGRLDATNVVFPLCSTIVTVDRDHEKTLGYTIEQIAWEKSGIIKERVPLVTGERKREALKVMEDVARKKSSRMYVIDKDFSVKVKSLKLHENRFDYCGENTFEDLVLTMNGPHQIENAGVALKTLEATGLPLSEKAIREGLKNAKNLGRFEILEKNGKMYILDGAHNPHGAESLVRSLKLYFNGEPLSLVIGILDDKNREDILRKYTGIFERVIVTRVPSPRMKDMNSLVDMAKKFFKNVEVIEDPLEAIESTERATVVTGSLFLVGYVREFLTTGKINEEWKL
soluble on expression in E. coli: soluble

MELAAGSFSEEQFWEACAELQQPALAGADWQLLVETSGISIYRLLDKKTGLYEYKVFGVLEDCSPTLLADIYMDSDYRKQWDQYVKELYEQECNGETVVYWEVKYPFPMSNRDYVYLRQRRDLDMEGRKIHVILARSTSMPQLGERSGVIRVKQYKQSLAIESDGKKGSKVFMYYFDNPGGQIPSWLINWAAKNGVPNFLKDMARACQNYLKKT
soluble on expression in E. coli: soluble

MAHHHHHHMLSHSSQLCSLWIESARVIRLDHCRCPGRLVSTGLGVSSEIRKTNLNGKSYTLDPVEMEPVFGVNRASDFSEKGGLCSTNETNEKNVLLSGGDIVSRNQKEVDKVERVALVAEKEHEEEEPLARNLHNTIGPTPYRVSWYDYGSVSPSKRFTYWAYRRLKELPTDWQEYYRRMLYQEISAARYVNQTWDCFMMVVDGYRKAKWILKKYGISIDESLIPKPYNNFWEETTHEERVWAHRRSHQMKELQALYRDEDELVFGAHTMDRREVSHGSIKNVQTGMQGGTPVHALDLPAPCESEIKTSPQIEDMSSALMSSIEDDKLWNPVLRSRIHTRRSREEVELYSFEDDEEDENSPS
soluble on expression in E. coli: soluble

MQYGAIVVTFNRKQLLIESITALLNQTVPPAKIIIIDNHSTDGTKAELQTADILANPSVDYRYLTKNIGGAGGFARGMQIAAADPNLDWASMSDDDAIFEPDYFEKLIAYQQDHPNRQILTGSVYIEDGRLQADQRNRFTNWSTFQAQAVPEREYRGNFEFDQYTFCGVFMSVAVIKQVGVADAGYFIWWDDCEYAVRTAKLSRPVNVSAAKLIHKTALPSLDFKSKFVPDWRLYYGQRNRLITIKRWRANSLVSLGWLLGFYARLAIQLCGPFYRGYRKMVIRVYLEALRDASREREGLNPNFMPGQKFLEHHHHHH
soluble on expression in E. coli: soluble

MGSDKIHHHHHHARLNAFKQLTPGSDVRDWIAAAGQVGGLGAADLNFPDHFAVYDADQMGNFLGEAALTLNGIAMRYYTDPGFKLGAFTHPDAAVRQAALDVTKQGIDTCARMGGKTVTLWMGQDGFDYAFQMDYGLAWDRTVAAIADICAHDPNIDIAIEYKPNEPRAFALMPDIGTTLLACREVGAVNLGVTLDFAHVLYADEMPAHSAALIGRHSRMIGLHLNDGYGKRDDGLMVGSVHAIQTVELLVAMLRMGQTDVIYFDTFPDMGGLNPIEEARTNVAVTDRLMAVAESLMEDPALAQAIDRQDAAASHRIVARALYGS
soluble on expression in E. coli: not soluble

TITLTENKRKSMEKLSVDGVISALAFDQRGALKRMMAQHQTKEPTVEQIEELKSLVSEELTPFASSILLDPEYGLPASRVRSEEAGLLLAYEKTGYDATTTSRLPDCLDVWSAKRIKEAGAEAVKFLLYYDIDGDQDVNEQKKAYIERIGSECRAEDIPFYLEILTYDEKIADNASPEFAKVKAHKVNEAMKVFSKERFGVDVLKVEVPVNMKFVEGFADGEVLFTKEEAAQAFRDQEASTDLPYIYLSAGVSAKLFQDTLVFAAESGAKFNGVLCGRATWAGSVKVYIEEGPQAAREWLRTEGFKNIDELNKVLDKTASPWTEKM
soluble on expression in E. coli: soluble

MKYLHTEKDYLDLLLAVKRKFDYQRSIVPYIVYFLLKTGMRFGELVALTWNEVDFDRGLLKTYRRYNTLSHKFVPPKNKTSIRMVPIDEECIKILRLLQTEQERANMELGIKNRYRMIFQHFGYIHSVPDIASVNKALSVLLNELDIYPIITTKGARHTYGSYLWHKGFDLGVIAKILGHRDISMLVEVYGHTLEEKIFEEFNQIRDIWKDCSLEHHHHHH
soluble on expression in E. coli: not soluble

MAISSVGFACRSFSPVRTLQSHCLWKIRFNTVAAAIETMDESDGFATDSDRQDKVSDEPRDREWKQLNSKDLGLSSSMIAKSTRKVLNGLKSKGHDVYLVGGCVRDLILKRTPKDFDILTSAELREVSSFSTSAQNSSRNTRTECKESSGSDGDEDCIRLNNCLQRDFTINGLMFDPYAKVVYDYLGGMEDIRKAKVRTVIHAGTSFHQDCARILRAIRIAARLGFRMSKETAHFIKNLSLLVQRLDKGRILMEMNYMLAYGSAEASLRLLWKFGILEILLPIQAAYLARSGFRRRDKRTNMLLSLFANLDKLLAPDRPCHSSLWIAILAFHKALADKPRSPIVVAAFSLAVHNCGDILEAVEITKKITRPHDKSFFELVEPEENLDFQTLLDEVMDLDASIEDALNQMTDAYFISKAMSAYPQAPYSDLVFIPLQLYLRAGRIFDCVKNEETRIGFEAKQGSKIEYGSLNSGYFPEIRHVFARVVFDTVFPLNLSQEL
soluble on expression in E. coli: soluble
